# Experimental data from IntAct's records for PubMed 35512704.
# B1: Mothers against decapentaplegic homolog 4 (Homo sapiens), Q13485 (parent)
# chain: MDNMSITNTPTSNDACLSIVHSLMCHRQGGESETFAKRAIESLVKKLKEKKDELDSLITAITTNGAHPSKCVTIQRTLDGRLQVAGRKGFPHVIYARLWRWPDLHKNELKHVKYCQYAFDLKCDSVCVNPYHYERVVSPGIDLSGLTLQSNAPSSMMVKDEYVHDFEGQPSLSTEGHSIQTIQHPPSNRASTETYSTPALLAPSESNATSTANFPNIPVASTSQPASILGGSHSEGLLQIASGPQPGQQQNGFTGQPATYHHNSTTTWTGSRTAPYTPNLPHHQNGHLQHHPPMPPHPGHYWPVHNELAFQPPISNHPAPEYWCSIAYFEMDVQVGETFKVPSSCPIVTVDGYVDPSGGDRFCLGQLSNVHRTEAIERARLHIGKGVQLECKGEGDVWVRCLSDHAVFVQSYYLDREAGRAPGDAVHKIYPSAYIKVFDLRQCHRQMQQQAATAQAAAAAQAAAVAGNIPGPGSVGGIAPAISLSAAAGIGVDDLRRLCILRMSFVKGWGPDYPRQSIKETPCWIEIHLHRALQLLDEVLHTMPIADPQPLD
# Variants of: B1
# Conditions: with smad3_human SMAD3, P84022
# Chain of smad3_human SMAD3, P84022 (P84022 whole entry, looked up): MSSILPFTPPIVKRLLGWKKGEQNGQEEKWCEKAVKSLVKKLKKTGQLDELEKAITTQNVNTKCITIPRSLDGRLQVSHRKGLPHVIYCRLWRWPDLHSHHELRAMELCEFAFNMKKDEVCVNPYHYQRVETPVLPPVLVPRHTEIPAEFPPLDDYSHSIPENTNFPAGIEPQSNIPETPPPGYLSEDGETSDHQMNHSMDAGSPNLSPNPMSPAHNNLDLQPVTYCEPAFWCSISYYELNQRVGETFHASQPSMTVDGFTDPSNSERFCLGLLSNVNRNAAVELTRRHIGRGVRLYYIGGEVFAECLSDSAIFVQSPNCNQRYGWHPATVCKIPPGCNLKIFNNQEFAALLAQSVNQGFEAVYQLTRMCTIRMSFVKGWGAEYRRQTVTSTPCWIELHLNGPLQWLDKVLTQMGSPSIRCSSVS
row,effect of a mutation on the interaction,Variant
1,disrupting interaction strength,R361H

# Variants of: B1
# Conditions: with agap2_human AGAP2, Q99490
row,effect of a mutation on the interaction,Variant
1,with no effect,R361H

# Variants of: B1
# Conditions: with ajuba_human AJUBA
row,effect of a mutation on the interaction,Variant
1,with no effect,R361H

# Variants of: B1
# Conditions: with akt1_human AKT1, P31749
row,effect of a mutation on the interaction,Variant
1,with no effect,R361H

# Variants of: B1
# Conditions: with akts1_human AKT1S1, Q96B36
row,effect of a mutation on the interaction,Variant
1,with no effect,R361H

# Variants of: B1
# Conditions: with akt3_human AKT3, Q9Y243
row,effect of a mutation on the interaction,Variant
1,with no effect,R361H

# Variants of: B1
# Conditions: with alk_human ALK
row,effect of a mutation on the interaction,Variant
1,with no effect,R361H

# Variants of: B1
# Conditions: with aph1a_human APH1A
row,effect of a mutation on the interaction,Variant
1,with no effect,R361H

# Variants of: B1
# Conditions: with arnt_human ARNT
row,effect of a mutation on the interaction,Variant
1,with no effect,R361H

# Variants of: B1
# Conditions: with arc1a_human ARPC1A
row,effect of a mutation on the interaction,Variant
1,with no effect,R361H

# Variants of: B1
# Conditions: with asxl1_human ASXL1, Q8IXJ9
row,effect of a mutation on the interaction,Variant
1,with no effect,R361H

# Variants of: B1
# Conditions: with bakor_human ATG14, Q6ZNE5
row,effect of a mutation on the interaction,Variant
1,with no effect,R361H

# Variants of: B1
# Conditions: with atpb_human ATP5F1B
row,effect of a mutation on the interaction,Variant
1,with no effect,R361H

# Variants of: B1
# Conditions: with aurkb_human AURKB
row,effect of a mutation on the interaction,Variant
1,with no effect,R361H

# Variants of: B1
# Conditions: with ufo_human AXL
row,effect of a mutation on the interaction,Variant
1,with no effect,R361H

# Variants of: B1
# Conditions: with za2g_human AZGP1, P25311
# Chain of za2g_human AZGP1, P25311 (P25311 whole entry): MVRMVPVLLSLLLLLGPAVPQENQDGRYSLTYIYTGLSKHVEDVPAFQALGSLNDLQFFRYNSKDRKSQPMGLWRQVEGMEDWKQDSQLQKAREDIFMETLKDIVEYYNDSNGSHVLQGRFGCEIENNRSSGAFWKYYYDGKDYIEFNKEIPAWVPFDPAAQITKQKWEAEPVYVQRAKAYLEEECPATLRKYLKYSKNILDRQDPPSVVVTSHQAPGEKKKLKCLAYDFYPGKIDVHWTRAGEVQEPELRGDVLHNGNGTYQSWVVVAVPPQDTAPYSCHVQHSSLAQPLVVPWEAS
row,effect of a mutation on the interaction,Variant
1,with no effect,R361H

# Variants of: B1
# Conditions: with b2mg_human B2M
row,effect of a mutation on the interaction,Variant
1,with no effect,R361H

# Variants of: B1
# Conditions: with bap1_human BAP1, Q92560
row,effect of a mutation on the interaction,Variant
1,with no effect,R361H

# Variants of: B1
# Conditions: with becn1_human BECN1, Q14457
row,effect of a mutation on the interaction,Variant
1,with no effect,R361H

# Variants of: B1
# Conditions: with birc2_human BIRC2, Q13490
row,effect of a mutation on the interaction,Variant
1,with no effect,R361H

# Variants of: B1
# Conditions: with braf_human BRAF
row,effect of a mutation on the interaction,Variant
1,with no effect,R361H

# Variants of: B1
# Conditions: with baba2_human BABAM2, Q9NXR7
# Chain of baba2_human BABAM2, Q9NXR7 (Q9NXR7 whole entry): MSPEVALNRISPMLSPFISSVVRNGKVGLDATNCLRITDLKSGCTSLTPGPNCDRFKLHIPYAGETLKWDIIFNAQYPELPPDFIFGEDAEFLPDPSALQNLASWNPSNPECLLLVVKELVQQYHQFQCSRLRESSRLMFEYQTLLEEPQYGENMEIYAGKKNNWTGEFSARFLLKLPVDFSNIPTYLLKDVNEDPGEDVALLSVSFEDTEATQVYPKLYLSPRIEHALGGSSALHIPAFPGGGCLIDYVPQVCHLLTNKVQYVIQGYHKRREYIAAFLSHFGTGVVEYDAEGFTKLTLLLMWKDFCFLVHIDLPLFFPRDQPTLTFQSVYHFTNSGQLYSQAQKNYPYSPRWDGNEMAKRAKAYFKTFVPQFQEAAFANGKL
row,effect of a mutation on the interaction,Variant
1,with no effect,R361H

# Variants of: B1
# Conditions: with cbl_human CBL
row,effect of a mutation on the interaction,Variant
1,with no effect,R361H

# Variants of: B1
# Conditions: with cblb_human CBLB
row,effect of a mutation on the interaction,Variant
1,with no effect,R361H

# Variants of: B1
# Conditions: with ccnd2_human CCND2, P30279
row,effect of a mutation on the interaction,Variant
1,with no effect,R361H

# Variants of: B1
# Conditions: with ccnd3_human CCND3, P30281
row,effect of a mutation on the interaction,Variant
1,with no effect,R361H

# Variants of: B1
# Conditions: with cd44_human CD44, P16070
row,effect of a mutation on the interaction,Variant
1,with no effect,R361H

# Variants of: B1
# Conditions: with cd79b_human CD79B
row,effect of a mutation on the interaction,Variant
1,with no effect,R361H

# Variants of: B1
# Conditions: with cdn2b_human CDKN2B
row,effect of a mutation on the interaction,Variant
1,with no effect,R361H

# Variants of: B1
# Conditions: with cdn2c_human CDKN2C
row,effect of a mutation on the interaction,Variant
1,with no effect,R361H

# Variants of: B1
# Conditions: with cebpa_human CEBPA
row,effect of a mutation on the interaction,Variant
1,with no effect,R361H

# Variants of: B1
# Conditions: with chd1l_human CHD1L
row,effect of a mutation on the interaction,Variant
1,with no effect,R361H

# Variants of: B1
# Conditions: with ch3l1_human CHI3L1, P36222
row,effect of a mutation on the interaction,Variant
1,with no effect,R361H

# Variants of: B1
# Conditions: with ctna1_human CTNNA1, P35221
# Chain of ctna1_human CTNNA1, P35221 (P35221 whole entry): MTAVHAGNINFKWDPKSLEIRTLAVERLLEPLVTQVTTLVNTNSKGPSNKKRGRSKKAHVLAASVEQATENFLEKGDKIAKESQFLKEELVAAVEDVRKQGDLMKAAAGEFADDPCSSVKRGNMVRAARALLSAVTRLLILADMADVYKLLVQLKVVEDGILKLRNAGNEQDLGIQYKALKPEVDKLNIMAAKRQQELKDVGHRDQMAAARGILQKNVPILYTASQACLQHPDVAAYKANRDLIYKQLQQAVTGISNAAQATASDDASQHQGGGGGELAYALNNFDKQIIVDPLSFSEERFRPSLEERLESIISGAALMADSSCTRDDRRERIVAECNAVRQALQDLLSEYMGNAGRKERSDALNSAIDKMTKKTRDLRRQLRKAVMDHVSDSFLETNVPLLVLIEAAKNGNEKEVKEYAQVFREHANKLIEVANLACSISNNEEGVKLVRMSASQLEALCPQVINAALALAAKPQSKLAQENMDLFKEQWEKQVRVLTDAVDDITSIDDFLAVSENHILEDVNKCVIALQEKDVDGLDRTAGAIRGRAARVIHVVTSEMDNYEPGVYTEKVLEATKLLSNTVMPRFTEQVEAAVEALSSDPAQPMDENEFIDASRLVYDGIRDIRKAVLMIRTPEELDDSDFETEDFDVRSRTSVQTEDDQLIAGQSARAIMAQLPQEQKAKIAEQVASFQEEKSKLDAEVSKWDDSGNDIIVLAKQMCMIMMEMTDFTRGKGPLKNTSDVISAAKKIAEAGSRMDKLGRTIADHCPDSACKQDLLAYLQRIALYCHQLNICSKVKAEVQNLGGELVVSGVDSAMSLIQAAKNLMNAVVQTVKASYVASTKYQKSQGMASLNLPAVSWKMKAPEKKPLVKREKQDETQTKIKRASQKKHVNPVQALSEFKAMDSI
row,effect of a mutation on the interaction,Variant
1,with no effect,R361H

# Variants of: B1
# Conditions: with ctnb1_human CTNNB1, P35222
row,effect of a mutation on the interaction,Variant
1,with no effect,R361H

# Variants of: B1
# Conditions: with cul3_human CUL3, Q13618
row,effect of a mutation on the interaction,Variant
1,with no effect,R361H

# Variants of: B1
# Conditions: with cul4b_human CUL4B
row,effect of a mutation on the interaction,Variant
1,with no effect,R361H

# Variants of: B1
# Conditions: with dicer_human DICER1, Q9UPY3
row,effect of a mutation on the interaction,Variant
1,with no effect,R361H

# Variants of: B1
# Conditions: with dll3_human DLL3, Q9NYJ7
row,effect of a mutation on the interaction,Variant
1,with no effect,R361H

# Variants of: B1
# Conditions: with duox2_human DUOX2, Q9NRD8
row,effect of a mutation on the interaction,Variant
1,with no effect,R361H

# Variants of: B1
# Conditions: with e2f3_human E2F3, O00716
# Chain of e2f3_human E2F3, O00716 (O00716 whole entry): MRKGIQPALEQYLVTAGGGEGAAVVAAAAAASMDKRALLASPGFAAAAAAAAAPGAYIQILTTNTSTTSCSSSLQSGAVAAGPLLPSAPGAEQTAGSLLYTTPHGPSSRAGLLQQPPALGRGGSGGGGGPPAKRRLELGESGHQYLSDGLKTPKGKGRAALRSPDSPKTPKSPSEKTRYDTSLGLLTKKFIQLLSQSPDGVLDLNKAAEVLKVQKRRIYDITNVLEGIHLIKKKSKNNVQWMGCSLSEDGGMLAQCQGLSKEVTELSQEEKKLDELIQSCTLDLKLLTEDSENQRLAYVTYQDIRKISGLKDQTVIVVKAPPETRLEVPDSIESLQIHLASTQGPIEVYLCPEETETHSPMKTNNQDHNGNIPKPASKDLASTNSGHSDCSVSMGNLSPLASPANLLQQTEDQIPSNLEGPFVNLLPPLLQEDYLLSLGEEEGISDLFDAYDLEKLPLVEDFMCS
row,effect of a mutation on the interaction,Variant
1,with no effect,R361H

# Variants of: B1
# Conditions: with e2f4_human E2F4, Q16254
row,effect of a mutation on the interaction,Variant
1,with no effect,R361H

# Variants of: B1
# Conditions: with e2f5_human E2F5, Q15329
row,effect of a mutation on the interaction,Variant
1,with no effect,R361H

# Variants of: B1
# Conditions: with if4e_human EIF4E
row,effect of a mutation on the interaction,Variant
1,with no effect,R361H

# Variants of: B1
# Conditions: with epha2_human EPHA2, P29317
row,effect of a mutation on the interaction,Variant
1,with no effect,R361H

# Variants of: B1
# Conditions: with epha7_human EPHA7, Q15375
row,effect of a mutation on the interaction,Variant
1,with no effect,R361H

# Variants of: B1
# Conditions: with ephb1_human EPHB1, P54762
row,effect of a mutation on the interaction,Variant
1,with no effect,R361H

# Variants of: B1
# Conditions: with erbb3_human ERBB3, P21860
row,effect of a mutation on the interaction,Variant
1,with no effect,R361H

# Variants of: B1
# Conditions: with erbb4_human ERBB4, Q15303
row,effect of a mutation on the interaction,Variant
1,with no effect,R361H

# Variants of: B1
# Conditions: with esr1_human ESR1, P03372
# Chain of esr1_human ESR1, P03372 (P03372 whole entry): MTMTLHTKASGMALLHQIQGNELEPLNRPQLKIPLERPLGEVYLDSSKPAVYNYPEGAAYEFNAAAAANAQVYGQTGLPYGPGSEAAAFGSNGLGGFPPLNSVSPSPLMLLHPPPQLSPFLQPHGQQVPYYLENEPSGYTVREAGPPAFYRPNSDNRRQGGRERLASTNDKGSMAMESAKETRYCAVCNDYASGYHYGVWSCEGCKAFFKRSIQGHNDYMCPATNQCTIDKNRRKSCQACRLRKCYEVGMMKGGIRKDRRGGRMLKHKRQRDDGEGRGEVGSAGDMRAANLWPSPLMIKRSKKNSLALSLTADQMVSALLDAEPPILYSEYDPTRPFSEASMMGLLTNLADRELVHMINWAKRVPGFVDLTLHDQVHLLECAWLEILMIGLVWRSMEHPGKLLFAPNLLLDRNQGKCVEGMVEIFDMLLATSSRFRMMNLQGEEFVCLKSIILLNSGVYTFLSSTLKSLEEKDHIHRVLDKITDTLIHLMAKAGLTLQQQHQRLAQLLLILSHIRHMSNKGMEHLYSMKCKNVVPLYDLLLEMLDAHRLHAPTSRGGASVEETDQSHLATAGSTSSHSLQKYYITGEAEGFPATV
row,effect of a mutation on the interaction,Variant
1,with no effect,R361H

# Variants of: B1
# Conditions: with etv1_human ETV1, P50549
# Chain of etv1_human ETV1, P50549 (P50549 whole entry): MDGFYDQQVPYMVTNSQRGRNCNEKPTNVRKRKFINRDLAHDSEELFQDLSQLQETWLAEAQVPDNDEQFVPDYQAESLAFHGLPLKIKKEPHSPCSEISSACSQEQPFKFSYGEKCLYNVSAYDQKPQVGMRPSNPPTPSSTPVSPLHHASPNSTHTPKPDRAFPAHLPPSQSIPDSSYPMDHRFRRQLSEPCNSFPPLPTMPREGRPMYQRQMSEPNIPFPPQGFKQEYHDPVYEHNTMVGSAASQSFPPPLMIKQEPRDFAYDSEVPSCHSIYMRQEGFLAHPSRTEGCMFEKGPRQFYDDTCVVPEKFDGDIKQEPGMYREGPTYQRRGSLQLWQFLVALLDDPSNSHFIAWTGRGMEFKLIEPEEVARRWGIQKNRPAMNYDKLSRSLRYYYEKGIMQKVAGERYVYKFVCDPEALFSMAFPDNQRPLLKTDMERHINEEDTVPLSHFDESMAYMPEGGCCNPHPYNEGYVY
row,effect of a mutation on the interaction,Variant
1,with no effect,R361H

# Variants of: B1
# Conditions: with fadd_human FADD
row,effect of a mutation on the interaction,Variant
1,with no effect,R361H

# Variants of: B1
# Conditions: with facd2_human FANCD2, Q9BXW9
# Chain of facd2_human FANCD2, Q9BXW9 (Q9BXW9 whole entry): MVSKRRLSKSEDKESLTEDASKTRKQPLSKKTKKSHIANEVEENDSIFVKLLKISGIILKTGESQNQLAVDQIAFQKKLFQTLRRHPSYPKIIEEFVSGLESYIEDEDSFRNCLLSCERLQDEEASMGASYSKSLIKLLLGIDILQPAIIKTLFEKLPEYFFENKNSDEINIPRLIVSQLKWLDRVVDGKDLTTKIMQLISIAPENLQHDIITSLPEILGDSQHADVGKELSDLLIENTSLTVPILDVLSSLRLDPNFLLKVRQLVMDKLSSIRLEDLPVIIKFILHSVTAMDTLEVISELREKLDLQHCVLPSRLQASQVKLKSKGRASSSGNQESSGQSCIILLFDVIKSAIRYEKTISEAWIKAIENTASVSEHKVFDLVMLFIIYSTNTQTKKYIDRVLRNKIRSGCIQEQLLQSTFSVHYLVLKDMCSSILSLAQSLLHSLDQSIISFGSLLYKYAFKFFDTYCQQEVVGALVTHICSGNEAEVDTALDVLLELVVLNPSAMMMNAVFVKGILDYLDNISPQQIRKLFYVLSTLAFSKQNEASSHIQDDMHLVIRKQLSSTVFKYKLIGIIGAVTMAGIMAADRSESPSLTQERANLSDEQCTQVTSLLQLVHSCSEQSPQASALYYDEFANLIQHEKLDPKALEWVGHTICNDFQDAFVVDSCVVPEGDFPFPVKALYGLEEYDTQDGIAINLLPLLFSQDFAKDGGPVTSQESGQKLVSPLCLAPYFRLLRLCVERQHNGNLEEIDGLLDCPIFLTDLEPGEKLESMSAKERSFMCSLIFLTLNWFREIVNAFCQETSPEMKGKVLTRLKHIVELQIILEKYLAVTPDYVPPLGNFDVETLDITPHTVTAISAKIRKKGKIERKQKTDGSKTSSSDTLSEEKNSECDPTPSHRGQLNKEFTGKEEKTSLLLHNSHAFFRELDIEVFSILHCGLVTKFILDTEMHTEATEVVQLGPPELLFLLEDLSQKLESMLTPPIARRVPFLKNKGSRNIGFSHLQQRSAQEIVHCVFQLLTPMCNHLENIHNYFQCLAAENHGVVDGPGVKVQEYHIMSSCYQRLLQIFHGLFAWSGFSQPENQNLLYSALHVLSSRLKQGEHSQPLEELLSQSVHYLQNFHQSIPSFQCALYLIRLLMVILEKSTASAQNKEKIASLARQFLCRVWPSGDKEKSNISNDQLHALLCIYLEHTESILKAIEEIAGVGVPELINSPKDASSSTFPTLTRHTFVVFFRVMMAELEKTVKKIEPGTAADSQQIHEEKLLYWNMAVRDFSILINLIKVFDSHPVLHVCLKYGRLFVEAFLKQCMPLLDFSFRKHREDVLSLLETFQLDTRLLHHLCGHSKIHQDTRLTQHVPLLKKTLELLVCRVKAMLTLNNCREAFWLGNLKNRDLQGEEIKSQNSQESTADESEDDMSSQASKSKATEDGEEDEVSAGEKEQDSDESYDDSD
row,effect of a mutation on the interaction,Variant
1,with no effect,R361H

# Variants of: B1
# Conditions: with fgf19_human FGF19, O95750
row,effect of a mutation on the interaction,Variant
1,with no effect,R361H

# Variants of: B1
# Conditions: with fgfr3_human FGFR3, P22607
row,effect of a mutation on the interaction,Variant
1,with no effect,R361H

# Variants of: B1
# Conditions: with fgfr4_human FGFR4, P22455
row,effect of a mutation on the interaction,Variant
1,with no effect,R361H

# Variants of: B1
# Conditions: with foxo1_human FOXO1, Q12778
row,effect of a mutation on the interaction,Variant
1,with no effect,R361H

# Variants of: B1
# Conditions: with gbra6_human GABRA6, Q16445
row,effect of a mutation on the interaction,Variant
1,with no effect,R361H

# Variants of: B1
# Conditions: with gata2_human GATA2, P23769
row,effect of a mutation on the interaction,Variant
1,with no effect,R361H

# Variants of: B1
# Conditions: with gata3_human GATA3, P23771
row,effect of a mutation on the interaction,Variant
1,with no effect,R361H

# Variants of: B1
# Conditions: with gna11_human GNA11, P29992
row,effect of a mutation on the interaction,Variant
1,with no effect,R361H

# Variants of: B1
# Conditions: with gnaq_human GNAQ
row,effect of a mutation on the interaction,Variant
1,with no effect,R361H

# Variants of: B1
# Conditions: with grm1_human GRM1, Q13255
row,effect of a mutation on the interaction,Variant
1,with no effect,R361H

# Variants of: B1
# Conditions: with grm3_human GRM3, Q14832
row,effect of a mutation on the interaction,Variant
1,with no effect,R361H

# Variants of: B1
# Conditions: with gsk3a_human GSK3A
row,effect of a mutation on the interaction,Variant
1,with no effect,R361H

# Variants of: B1
# Conditions: with hdac1_human HDAC1, Q13547
row,effect of a mutation on the interaction,Variant
1,with no effect,R361H

# Variants of: B1
# Conditions: with hdac3_human HDAC3, O15379
row,effect of a mutation on the interaction,Variant
1,with no effect,R361H

# Variants of: B1
# Conditions: with hgf_human HGF
row,effect of a mutation on the interaction,Variant
1,with no effect,R361H

# Variants of: B1
# Conditions: with h31_human H3C1, P68431
row,effect of a mutation on the interaction,Variant
1,with no effect,R361H

# Variants of: B1
# Conditions: with hlab_human HLA-B
row,effect of a mutation on the interaction,Variant
1,with no effect,R361H

# Variants of: B1
# Conditions: with hnf1a_human HNF1A
row,effect of a mutation on the interaction,Variant
1,with no effect,R361H

# Variants of: B1
# Conditions: with rash_human HRAS
row,effect of a mutation on the interaction,Variant
1,with no effect,R361H

# Variants of: B1
# Conditions: with hs90a_human HSP90AA1, P07900
row,effect of a mutation on the interaction,Variant
1,with no effect,R361H

# Variants of: B1
# Conditions: with hs90b_human HSP90AB1, P08238
row,effect of a mutation on the interaction,Variant
1,with no effect,R361H

# Variants of: B1
# Conditions: with il7ra_human IL7R
row,effect of a mutation on the interaction,Variant
1,with no effect,R361H

# Variants of: B1
# Conditions: with irf6_human IRF6, O14896
row,effect of a mutation on the interaction,Variant
1,with no effect,R361H

# Variants of: B1
# Conditions: with irs1_human IRS1, P35568
row,effect of a mutation on the interaction,Variant
1,with no effect,R361H

# Variants of: B1
# Conditions: with jak1_human JAK1, P23458
row,effect of a mutation on the interaction,Variant
1,with no effect,R361H

# Variants of: B1
# Conditions: with kdm5c_human KDM5C
row,effect of a mutation on the interaction,Variant
1,with no effect,R361H

# Variants of: B1
# Conditions: with vgfr2_human KDR
row,effect of a mutation on the interaction,Variant
1,with no effect,R361H

# Variants of: B1
# Conditions: with keap1_human KEAP1, Q14145
row,effect of a mutation on the interaction,Variant
1,with no effect,R361H

# Variants of: B1
# Conditions: with klf4_human KLF4, O43474
row,effect of a mutation on the interaction,Variant
1,with no effect,R361H
